This note sets out measurements from article PMC8591604, “Targeting Oncogenic Src Homology 2 Domain-Containing Phosphatase 2 (SHP2) by Inhibiting Its Protein–Protein Interactions” (Journal of Medicinal Chemistry, 2021).

One may read the Kd as a measure of binding affinity in units of concentration. Lower therefore signals tighter binding.

Assay [1] concerns the target N-SH2 domain of SHP2 (residues 2–111) (human) (UniProt Q06124).
Assay [2] has the same target. The source holds these as a separate data set.
For assay [3] the target is unchanged. The assay is described as follows: fluorescence polarisation; fluorescence anisotropy, displacement: 0.10 nM CF-P9W5 (0.5 nM for P8 and OP) with […] N-SH2 titrated with unlabelled peptide; fluorescence buffer. For orientation: Polarisation of emitted light reports the rotation of a fluorescent probe.

Read-outs that look alike come from different tables or passages of the source.

Consider “CF-P9, fluorescently labeled IRS-1 pY1172 analogue (nine residues) (peptide)”, for which the equilibrium dissociation constant (Kd) in assay [1] was determined as 53 nM. As to “CF-P9Y0, unphosphorylated analogue of the labeled IRS-1 pY1172 peptide”, the Kd in assay [2] was found to be 6.6 µM. Turning to “P8W5, P8 analogue with W at position +5 (peptide)”, in assay [3], the Kd is 1.6 nM.
